Results: doi:10.1101/2021.12.25.474155
Where two headings read alike, the source gives them in different places.

Columns and labels:
NCAP [1] = molecular target: T1, NCAP (SARS-CoV-2, UniProt P0DTC9); test: competition
DD-C [2] = molecular target: T2, DD-C (SARS-CoV-2, UniProt P0DTC9); test: EMSA
LCD [3] = molecular target: T3, LCD (SARS-CoV-2, UniProt P0DTC9); test: EMSA
NCAP [4] = molecular target: T1, NCAP; test: EMSA
NCAP [5] = molecular target: T1, NCAP; test: EMSA; remark: listed apart in the source
N-RBD [6] = molecular target: T4, N-RBD (SARS-CoV-2, UniProt P0DTC9); test: EMSA
DD-C [7] = molecular target: T2, DD-C; test: EMSA; remark: listed apart in the source
LCD [8] = molecular target: T3, LCD; test: EMSA; remark: listed apart in the source
N-RBD [9] = molecular target: T4, N-RBD; test: EMSA; remark: listed apart in the source
NCAP [10] = molecular target: T1, NCAP; test: competition; remark: listed apart in the source
NCAP [11] = molecular target: T1, NCAP; test: EMSA; remark: listed apart in the source
NCAP [12] = molecular target: T1, NCAP; test: EMSA; remark: listed apart in the source

B1: Tet3-9 (structured_RNA)
RNA: GGACCGUCAAAUUGCGGGAAAGGGGUCAACAGCCGUUCAGUACCAAGUCUCAGGGGAAACUUUGAGAUGGCCUUGCAAAGGGUAUGGUAAUAAGCUGACGGACAUGGUCCUAACCACGCAGCCAAGUCCUAAGUCAACAGGAGACUGUUGAUAUGGAUGCAGUUCACAGACUAAAUGUCGGUCGGGGAAGAUGUAUUCUUCUCAUAAGAUAUAGUCGGACCUCUCCCGAAAGGGAGUUGGAGUACUCGAAAUUCGUUUGGAGGGCUGCAGGGCCCUCUAGA
binding result (NCAP [1]): binds

B2: S2hp (structured_RNA)
RNA: GGCUGUGUGGCUGUCACUCGGCUGCAUGCUUAGUGCACUCACGCAGUAUAAUUAAUAACUAAUUACUGUCGUUGACAGGACACGAGUAACUCGUCUAUCUUCUGCAGGCUGCUUACGGUUUCGUCCGUGUUGCAGCCGAUCAUCAGCACAUCUAGGUUUCGUCCGGGUGUGACCGAAAGGUAAGAUGGAGAGCCUUGUCCCUGGUUUCAACGA
Kd (DD-C [2]): ~707 nM
Kd (LCD [3]): ~1410 nM
Kd (NCAP [4]): 312 ± 39 nM
Kd (NCAP [5]): 173 ± 14 nM
Kd (N-RBD [6]): ~354 nM

AUCACACUCUUGUCCGAUGUU (ssRNA, 5'-phosphate) [siDGCR8-1 antisense]
binding result (NCAP [1]): no binding

UAUAAUUAAUAACUAAUUACUG (ssRNA) [S2]
Kd (NCAP [5]): 216 ± 23 nM
binding result (DD-C [7]): no binding
binding result (LCD [8]): no binding
binding result (N-RBD [9]): no binding

B3: siDGCR8-1 duplex (dsRNA)
RNA 1: CAUCGGACAAGAGUGUGAUUU
RNA 2: AUCACACUCUUGUCCGAUGUU
modifications: 5'-phosphate on both strands
binding result (NCAP [1]): binds

B4: S1.5hp (structured_RNA)
RNA: GGAUCUCUUGUAGAUCUGUUCUCUAAACGAACUUUAAAAUCUGUGUGGCUGUCACUCGGCUGCAUGCUUAGUGCACUCACGCAG
binding result (NCAP [10]): binds

B5: F294 (structured_RNA)
RNA: GGAUUAAAGGUUUAUACCUUCCCAGGUAACAAACCAACCAACUUUCGAUCUCUUGUAGAUCUGUUCUCUAAACGAACUUUAAAAUCUGUGUGGCUGUCACUCGGCUGCAUGCUUAGUGCACUCACGCAGUAUAAUUAAUAACUAAUUACUGUCGUUGACAGGACACGAGUAACUCGUCUAUCUUCUGCAGGCUGCUUACGGUUUCGUCCGUGUUGCAGCCGAUCAUCAGCACAUCUAGGUUUCGUCCGGGUGUGACCGAAAGGUAAGAUGGAGAGCCUUGUCCCUGGUUUCAACGA
Kd (NCAP [5]): 26 ± 10 nM

B6: F127 (structured_RNA)
RNA: GGAUUAAAGGUUUAUACCUUCCCAGGUAACAAACCAACCAACUUUCGAUCUCUUGUAGAUCUGUUCUCUAAACGAACUUUAAAAUCUGUGUGGCUGUCACUCGGCUGCAUGCUUAGUGCACUCACGCAG
Kd (NCAP [5]): 183 ± 56 nM

B7: SL5 (structured_RNA)
RNA: GGUCGUUGACAGGACACGAGUAACUCGUCUAUCUUCUGCAGGCUGCUUACGGUUUCGUCCGUGUUGCAGCCGAUCAUCAGCACAUCUAGGUUUCGUCCGGGUGUGACCGAAAGGUAAGAUGGAGAGCCUUGUCCCUGGUUUCAACGA
Kd (NCAP [4]): 1250 ± 130 nM
Kd (NCAP [5]): 166 ± 36 nM

B8: S1hp (structured_RNA)
RNA: GGUUUAUACCUUCCCAGGUAACAAACCAACCAACUUUCGAUCUCUUGUAGAUC
binding result (NCAP [10]): binds

B9: F257 (structured_RNA)
RNA: GGUCGUUGACAGGACACGAGUAACUCGUCUAUCUUCUGCAGGCUGCUUACGGUUUCGUCCGUGUUGCAGCCGAUCAUCAGCACAUCUAGGUUUCGUCCGGGUGUGACCGAAAGGUAAGAUGGAGAGCCUUGUCCCUGGUUUCAACGAGAAAACACACGUCCAACUCAGUUUGCCUGUUUUACAGGUUCGCGACGUGCUCGUACGUGGCUUUGGAGACUCCGUGGAGGAGGUCUUAUCAGAGGCACGUCAACAUCUUAAA
Kd (NCAP [5]): 23 ± 5 nM

GGCUGUGUGGCUGUCACUCGGCUGCAUGCUUAGUGCACUCACGCAG (structured_RNA) [SL4]
Kd (NCAP [11]): 356 ± 43 nM
Kd (NCAP [12]): 4800 ± 200 nM

GGCUGUGUGGCUGUCACUCGGCUGCAUGCUUAGUGCACUCACGCAG (structured_RNA) [SL4 hairpin]
Kd (NCAP [4]): 8600 ± 1000 nM
Kd (NCAP [5]): 569 ± 67 nM

B10: S8hp (structured_RNA)
RNA: GGAAGGAGCUGGUGGCCAUAGUUACGGCGCCGAUCUAAAGUCAUUUGACUUAGGCGACGAGCUUGGCACUGAUCCUUAUGAAGAUUUUCAAGAAAACUGGAACACUAAACAUAGCAGUGGUGUUACCCGUGAACUCAUGCGUGAGCUUAACGGAGGGGCAUACACUCGCUAUGU
binding result (NCAP [1]): binds
